Test results as given in article PMC8346855.
Blank lines part the entries; values can stand above or below the substance they belong to.

Key:
[1] = target: thermostabilized turkey beta-1 adrenergic receptor (turkey) (UniProt P07700); experiment: cross-linking; isoprenaline-bound β1AR with Gαi or β-arrestin-1 at equimolar concentration; BS(PEG)9, high-mass MALDI-MS; percent complex by normalisation with β-Gal
[2] = target: thermostabilized turkey beta-1 adrenergic receptor (turkey) (UniProt P07700); experiment: cross-linking; carvedilol-bound β1AR with Gαi or β-arrestin-1 at equimolar concentration; BS(PEG)9, high-mass MALDI-MS; percent complex by normalisation with β-Gal
[3] = target: thermostabilized turkey beta-1 adrenergic receptor (turkey) (UniProt P07700); experiment: cross-linking; apo β1AR with Gαi or β-arrestin-1 at equimolar concentration; BS(PEG)9, high-mass MALDI-MS; percent complex by normalisation with β-Gal
[4] = target: thermostabilized turkey beta-1 adrenergic receptor (turkey) (UniProt P07700); experiment: cross-linking; Kd by titrating the G protein against the apo GPCR; 20 mM Hepes pH 7.5, 40 mM NaCl, 0.01% lauryl maltose neopentyl glycol; BS(PEG)9, high-mass MALDI-MS, normalised to β-galactosidase
[5] = target: thermostabilized turkey beta-1 adrenergic receptor (turkey) (UniProt P07700); experiment: cross-linking; Kd by titrating the partner protein against isoprenaline-bound β1AR; 20 mM Hepes pH 7.5, 40 mM NaCl, 0.01% lauryl maltose neopentyl glycol; BS(PEG)9, high-mass MALDI-MS, normalised to β-galactosidase
[6] = target: mouse angiotensin II type 1 receptor F117W Δ324 with a C-terminal 1D4 tag (mouse); experiment: cross-linking + other: high-mass MALDI-MS; ligand-free (apo) GPCR, 5 µM, mixed with partner protein at various concentrations, 1 h at room temperature, BS(PEG)9 cross-linking, β-Gal as internal standard; 20 mM Hepes pH 7.5, 40 mM NaCl, 0.01% LMNG; Ka = 1/Kd
[7] = target: angiotensin II-bound mouse angiotensin II type 1 receptor F117W Δ324 (mouse | human); experiment: cross-linking + other: high-mass MALDI-MS; angiotensin II-bound AT1R (angII-AT1R), 5 µM, mixed with partner protein at various concentrations, 1 h at room temperature, BS(PEG)9 cross-linking, 1.0 µM β-Gal as internal standard; 20 mM Hepes pH 7.5, 40 mM NaCl, 0.01% LMNG; Ka = 1/Kd
[8] = target: angiotensin II-bound F117W mutant of mouse angiotensin II type 1 receptor (mouse | not stated) (UniProt P29754); experiment: cross-linking; Kd by titrating the G protein against ligand-bound AT1R; 20 mM Hepes pH 7.5, 40 mM NaCl, 0.01% lauryl maltose neopentyl glycol; BS(PEG)9, high-mass MALDI-MS, normalised to β-galactosidase
[9] = target: thermostabilized turkey beta-1 adrenergic receptor (turkey) (UniProt P07700); experiment: cross-linking; β1AR and partner with 1 or 25 µM s32212 at increasing concentrations of isoprenaline; BS(PEG)9, high-mass MALDI-MS

Sequence of thermostabilized turkey beta-1 adrenergic receptor (turkey) (P07700 whole entry): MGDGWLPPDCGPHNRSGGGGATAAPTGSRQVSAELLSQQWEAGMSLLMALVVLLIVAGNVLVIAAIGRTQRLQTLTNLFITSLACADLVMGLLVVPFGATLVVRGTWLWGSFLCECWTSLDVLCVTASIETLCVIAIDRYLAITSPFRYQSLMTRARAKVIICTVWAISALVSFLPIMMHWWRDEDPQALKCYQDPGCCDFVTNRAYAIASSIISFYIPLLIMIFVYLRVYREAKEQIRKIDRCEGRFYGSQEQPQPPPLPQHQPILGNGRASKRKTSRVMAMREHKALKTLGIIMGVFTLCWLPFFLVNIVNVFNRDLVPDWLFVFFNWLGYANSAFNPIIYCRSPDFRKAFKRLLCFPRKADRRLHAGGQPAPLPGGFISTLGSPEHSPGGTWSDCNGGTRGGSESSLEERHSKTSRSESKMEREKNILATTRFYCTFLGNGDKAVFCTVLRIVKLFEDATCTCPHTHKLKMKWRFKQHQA
Sequence of full-length wild-type β-arrestin-1 (P49407 whole entry): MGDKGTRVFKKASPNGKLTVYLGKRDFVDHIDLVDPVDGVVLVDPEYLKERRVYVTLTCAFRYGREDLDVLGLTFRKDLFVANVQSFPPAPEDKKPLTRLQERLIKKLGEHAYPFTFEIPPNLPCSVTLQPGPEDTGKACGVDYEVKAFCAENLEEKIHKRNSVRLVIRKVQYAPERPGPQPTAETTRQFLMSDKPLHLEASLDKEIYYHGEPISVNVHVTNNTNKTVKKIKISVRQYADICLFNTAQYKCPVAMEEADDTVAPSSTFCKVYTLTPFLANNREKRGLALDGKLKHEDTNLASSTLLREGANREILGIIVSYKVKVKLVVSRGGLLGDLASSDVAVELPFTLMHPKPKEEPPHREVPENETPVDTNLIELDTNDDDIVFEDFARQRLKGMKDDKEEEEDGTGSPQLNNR

complex formation [1]: 60%
complex formation [2]: 92%
complex formation [3]: 60%
Substance: full-length wild-type Gαi (from UniProt P63096 1-354) (natural protein)

complex formation [1]: 32%
complex formation [2]: 88%
complex formation [3]: 32%
Substance: full-length wild-type β-arrestin-1 (from UniProt P49407 1-418) (natural protein)

Kd [4]: 280 nM
Kd [5]: 230 nM
Substance: mGo truncated by its last five residues (domain or fragment)

Ka [6]: 270000 M⁻¹
Ka [7]: 1.02e+06 M⁻¹
Substance: mini-Go (domain or fragment)

Kd [5]: 1620 nM
Substance: mini-Gα protein mGi (domain or fragment)

binding strength relative to mGq [8]: 2 fold
Kd [4]: 250 nM
Kd [5]: 250 nM
Substance: mini-Gα protein mGo (domain or fragment)

Kd [5]: 1240 nM
Substance: mini-Gα protein mGq (domain or fragment)

complex formation recovered by raising isoprenaline (with s32212) [9]: 80%
Kd [5]: 350 nM
Substance: mini-Gα protein mGs (from UniProt P63092 87-394) (domain or fragment)
